This passage reports activity (1-depletion score) results from patent publication US20220213456.

Data set [1] has as its system T1, OMNI-39 (Butyrivibrio sp. AC2005).
T1 sequence: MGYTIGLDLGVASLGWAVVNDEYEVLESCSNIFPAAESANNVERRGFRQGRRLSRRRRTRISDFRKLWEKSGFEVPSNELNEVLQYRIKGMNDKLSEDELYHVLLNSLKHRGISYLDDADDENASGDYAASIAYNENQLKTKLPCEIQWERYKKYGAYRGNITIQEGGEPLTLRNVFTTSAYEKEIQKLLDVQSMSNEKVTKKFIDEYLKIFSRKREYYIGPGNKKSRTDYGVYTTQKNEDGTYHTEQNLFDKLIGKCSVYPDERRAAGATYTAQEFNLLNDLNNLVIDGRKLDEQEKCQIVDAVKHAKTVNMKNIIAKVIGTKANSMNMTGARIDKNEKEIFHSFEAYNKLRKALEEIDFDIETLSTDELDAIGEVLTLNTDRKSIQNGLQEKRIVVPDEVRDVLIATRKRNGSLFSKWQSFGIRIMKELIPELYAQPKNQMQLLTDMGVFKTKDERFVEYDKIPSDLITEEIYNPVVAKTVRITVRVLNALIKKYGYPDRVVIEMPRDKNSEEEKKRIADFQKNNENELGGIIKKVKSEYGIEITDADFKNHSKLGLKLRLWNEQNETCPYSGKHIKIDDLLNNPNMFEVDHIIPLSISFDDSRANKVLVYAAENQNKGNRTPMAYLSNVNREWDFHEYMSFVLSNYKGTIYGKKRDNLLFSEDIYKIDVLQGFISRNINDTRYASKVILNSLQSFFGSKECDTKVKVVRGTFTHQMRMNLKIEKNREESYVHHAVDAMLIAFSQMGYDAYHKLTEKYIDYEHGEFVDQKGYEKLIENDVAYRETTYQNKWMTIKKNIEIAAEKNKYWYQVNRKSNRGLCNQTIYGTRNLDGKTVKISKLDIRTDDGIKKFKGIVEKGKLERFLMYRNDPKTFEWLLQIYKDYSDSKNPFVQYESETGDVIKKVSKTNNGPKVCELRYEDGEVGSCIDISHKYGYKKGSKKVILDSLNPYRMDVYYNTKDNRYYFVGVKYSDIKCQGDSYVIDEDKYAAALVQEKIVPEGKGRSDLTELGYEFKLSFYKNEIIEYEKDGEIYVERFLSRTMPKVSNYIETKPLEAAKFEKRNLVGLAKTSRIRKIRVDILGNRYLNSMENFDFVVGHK
Kind of data set: cell_activity. Conditions: E. coli plasmid depletion; PAM NNGYAD (specific NNGYAA).

For data set [2] the test system is unchanged. Kind of data set: cleavage_in_vitro. Conditions: TXTL; PAM NNGHAD (specific NNGYAA).
Data set [3] has as its system T2, OMNI-40 (bacterium LF-3).
T2 sequence: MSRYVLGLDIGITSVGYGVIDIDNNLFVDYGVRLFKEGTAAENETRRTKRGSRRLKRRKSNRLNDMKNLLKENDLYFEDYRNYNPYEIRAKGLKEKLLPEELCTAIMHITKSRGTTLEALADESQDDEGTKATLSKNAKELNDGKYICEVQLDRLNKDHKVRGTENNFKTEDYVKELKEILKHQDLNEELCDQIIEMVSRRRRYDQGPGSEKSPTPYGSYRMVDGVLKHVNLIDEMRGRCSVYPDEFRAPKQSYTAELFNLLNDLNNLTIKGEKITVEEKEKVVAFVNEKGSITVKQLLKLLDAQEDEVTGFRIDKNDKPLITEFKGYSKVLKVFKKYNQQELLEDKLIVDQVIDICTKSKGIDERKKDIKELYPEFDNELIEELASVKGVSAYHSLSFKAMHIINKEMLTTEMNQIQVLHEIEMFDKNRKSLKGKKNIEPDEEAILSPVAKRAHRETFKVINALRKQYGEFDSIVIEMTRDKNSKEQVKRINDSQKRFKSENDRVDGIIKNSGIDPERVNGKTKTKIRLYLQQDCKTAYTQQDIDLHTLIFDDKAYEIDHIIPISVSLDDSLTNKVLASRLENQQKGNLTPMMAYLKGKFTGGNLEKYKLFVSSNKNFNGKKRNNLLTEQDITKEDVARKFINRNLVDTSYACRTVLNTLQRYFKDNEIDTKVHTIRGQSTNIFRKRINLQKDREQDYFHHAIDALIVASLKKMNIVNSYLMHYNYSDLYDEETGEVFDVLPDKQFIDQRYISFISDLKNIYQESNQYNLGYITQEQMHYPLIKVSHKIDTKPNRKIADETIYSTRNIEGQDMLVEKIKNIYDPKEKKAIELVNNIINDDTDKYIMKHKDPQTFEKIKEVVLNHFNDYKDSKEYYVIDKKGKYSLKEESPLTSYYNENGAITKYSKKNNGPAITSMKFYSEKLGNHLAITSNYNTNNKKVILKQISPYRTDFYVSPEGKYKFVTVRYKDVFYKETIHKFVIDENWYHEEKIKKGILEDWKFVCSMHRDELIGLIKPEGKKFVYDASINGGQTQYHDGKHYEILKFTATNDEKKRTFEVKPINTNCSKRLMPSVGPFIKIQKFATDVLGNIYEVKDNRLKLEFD
The experiment in a line: cell_activity. Conditions: E. coli plasmid depletion; PAM NYGRV (specific NYGAV).

The test system of data set [4] is T2, OMNI-40 (bacterium LF-3). The experiment in a line: cleavage_in_vitro. Conditions: TXTL; PAM NYGRV.
Data set [5] concerns T3, OMNI-36 (Blastopirellula marina).
T3 sequence: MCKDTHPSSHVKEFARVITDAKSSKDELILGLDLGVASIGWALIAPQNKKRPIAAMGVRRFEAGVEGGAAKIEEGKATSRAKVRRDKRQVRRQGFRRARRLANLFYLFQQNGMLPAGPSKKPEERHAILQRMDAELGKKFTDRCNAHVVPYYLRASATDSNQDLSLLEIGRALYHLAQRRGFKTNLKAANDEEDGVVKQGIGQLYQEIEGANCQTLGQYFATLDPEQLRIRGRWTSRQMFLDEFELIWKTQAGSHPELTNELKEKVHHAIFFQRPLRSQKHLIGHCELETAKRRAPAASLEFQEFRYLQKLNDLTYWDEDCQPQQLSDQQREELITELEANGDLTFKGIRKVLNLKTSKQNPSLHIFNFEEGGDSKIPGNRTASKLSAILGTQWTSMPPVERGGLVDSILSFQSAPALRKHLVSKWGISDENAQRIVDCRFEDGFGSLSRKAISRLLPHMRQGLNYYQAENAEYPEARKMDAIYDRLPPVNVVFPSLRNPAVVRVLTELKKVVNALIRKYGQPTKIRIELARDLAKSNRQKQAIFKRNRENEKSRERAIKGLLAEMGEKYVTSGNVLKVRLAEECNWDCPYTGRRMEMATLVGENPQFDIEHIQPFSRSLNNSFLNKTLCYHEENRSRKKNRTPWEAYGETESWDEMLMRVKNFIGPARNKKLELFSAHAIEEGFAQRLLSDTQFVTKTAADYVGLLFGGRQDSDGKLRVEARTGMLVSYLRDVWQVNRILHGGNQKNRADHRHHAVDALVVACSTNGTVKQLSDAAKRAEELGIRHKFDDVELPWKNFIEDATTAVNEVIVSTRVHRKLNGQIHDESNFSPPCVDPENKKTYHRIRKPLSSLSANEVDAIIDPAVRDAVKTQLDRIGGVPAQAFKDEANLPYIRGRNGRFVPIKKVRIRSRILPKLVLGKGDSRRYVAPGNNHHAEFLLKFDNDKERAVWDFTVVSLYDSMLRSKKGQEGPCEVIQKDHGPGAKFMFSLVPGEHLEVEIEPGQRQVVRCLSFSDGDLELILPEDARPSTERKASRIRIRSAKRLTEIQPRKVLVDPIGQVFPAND
The experiment in a line: cleavage_in_vitro. Conditions: TXTL; PAM NNYCCC; V1, V2 tested.

Data set [6] has as its system T4, OMNI-53 (Clostridium sp. AF02-29).
T4 sequence: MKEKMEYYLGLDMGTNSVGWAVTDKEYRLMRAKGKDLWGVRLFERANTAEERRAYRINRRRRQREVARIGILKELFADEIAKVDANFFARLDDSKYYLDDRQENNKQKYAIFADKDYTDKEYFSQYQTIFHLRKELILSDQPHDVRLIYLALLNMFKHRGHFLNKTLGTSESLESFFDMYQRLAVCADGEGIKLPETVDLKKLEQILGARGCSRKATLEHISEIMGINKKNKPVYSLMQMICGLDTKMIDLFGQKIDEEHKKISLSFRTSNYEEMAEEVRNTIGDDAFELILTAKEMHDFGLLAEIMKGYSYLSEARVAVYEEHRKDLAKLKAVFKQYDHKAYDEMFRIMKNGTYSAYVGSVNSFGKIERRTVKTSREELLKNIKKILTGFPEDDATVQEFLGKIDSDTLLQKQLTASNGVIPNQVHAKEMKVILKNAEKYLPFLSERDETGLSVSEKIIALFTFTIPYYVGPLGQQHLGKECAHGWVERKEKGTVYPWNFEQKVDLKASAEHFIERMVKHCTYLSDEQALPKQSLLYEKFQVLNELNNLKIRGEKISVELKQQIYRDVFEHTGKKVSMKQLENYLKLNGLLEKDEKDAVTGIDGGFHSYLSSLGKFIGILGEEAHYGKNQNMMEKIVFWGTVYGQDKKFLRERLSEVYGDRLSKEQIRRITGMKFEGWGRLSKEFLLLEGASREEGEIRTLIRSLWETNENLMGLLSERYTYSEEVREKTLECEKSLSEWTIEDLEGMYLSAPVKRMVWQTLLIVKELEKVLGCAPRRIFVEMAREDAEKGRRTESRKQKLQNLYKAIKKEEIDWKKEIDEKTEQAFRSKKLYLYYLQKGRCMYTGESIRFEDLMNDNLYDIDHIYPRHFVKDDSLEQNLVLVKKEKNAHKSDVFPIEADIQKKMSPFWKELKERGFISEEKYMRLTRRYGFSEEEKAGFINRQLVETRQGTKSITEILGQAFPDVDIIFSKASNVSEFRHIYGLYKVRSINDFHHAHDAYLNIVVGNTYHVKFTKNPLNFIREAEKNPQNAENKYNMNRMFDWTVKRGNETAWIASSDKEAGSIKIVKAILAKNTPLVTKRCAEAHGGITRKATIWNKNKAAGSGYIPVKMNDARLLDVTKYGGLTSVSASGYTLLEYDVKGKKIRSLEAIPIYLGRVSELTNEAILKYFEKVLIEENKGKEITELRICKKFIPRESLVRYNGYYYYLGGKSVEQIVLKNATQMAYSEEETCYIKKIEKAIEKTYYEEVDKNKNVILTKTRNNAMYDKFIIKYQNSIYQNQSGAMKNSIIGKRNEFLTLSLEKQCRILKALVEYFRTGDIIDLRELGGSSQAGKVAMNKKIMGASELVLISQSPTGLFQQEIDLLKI
Kind of data set: cell_activity. Conditions: E. coli plasmid depletion; PAM NRTA.

The test system is the same in data set [7]. The experiment in a line: cleavage_in_vitro. Conditions: TXTL; PAM NRHR (specific NAWA).

With “GGAAGAGCAGAGCCUUGGUCUCGUUUUAGUACCUAGAGAAAGAAAUUUCUUUAGACCUACUAAAAUAAGGCUUUAUGCCGAGAUUAAAGGAUGCCGACGGGCAUCCUUUUUU / GGAAGAGCAGAGCCTTGGTCTCNNNNNNNN / NNNNNNNNGAGACCAAGGCTCTGCTCTTCC [OMNI-39 T2 sgRNA V2 ; pbPOS T2 protospacer 8N PAM library]”, the activity (1-depletion score) in data set [1] amounted to 0.99; in data set [2], 0.95. Take “GGAAGAGCAGAGCCUUGGUCUCGUUUUGUUACCAUAUGAUUGAAAAUUUAUAUGACCUAACAAAACAAGGGUUUAUCCCGGACUCGGCUCUUCGGAGCCUUUUU / GGAAGAGCAGAGCCTTGGTCTCNNNNNNNN / NNNNNNNNGAGACCAAGGCTCTGCTCTTCC [OMNI-40 T2 sgRNA V2 ; pbPOS T2 protospacer 8N PAM library]”: the activity (1-depletion score) was 0.95 in the data set on OMNI-40 (bacterium LF-3) [3] and 0.97 in the data set with OMNI-40 (bacterium LF-3) [4]. As for “GGAAGAGCAGAGCCUUGGUCUCGCUGUGGCUUGGAGGGAAUCGUGAAAACGAUUGCUUCGCAAGUCAUAGUAAAGCAAUAGUCAGCGAAAGGUUUGCUCACGGAGCAUUCCGUCGAGUACCCUUUGACGCCUCCCAGCGGGGCGUCUUUUUUU / GGAAGAGCAGAGCCTTGGTCTCNNNNNNNN / NNNNNNNNGAGACCAAGGCTCTGCTCTTCC [OMNI-36 T2 sgRNA V1 ; pbPOS T2 protospacer 8N PAM library]”, in data set [5], the activity (1-depletion score) stood at 0.99. On to “GGAAGAGCAGAGCCUUGGUCUCGUUUGAGAACCAUGGAAACAUGGUGAGUGCAAAUAAGGAUUAUCCGAAAUUGUAUGCCCGCAUUGUGCGGCAAUAAAAAGGCUCGAAAGAGUCUUUUU / GGAAGAGCAGAGCCTTGGTCTCNNNNNNNN / NNNNNNNNGAGACCAAGGCTCTGCTCTTCC [OMNI-53 T2 sgRNA V1 ; pbPOS T2 protospacer 8N PAM library]”, for which the activity (1-depletion score) in data set [6] is 1; in data set [7], 0.97.
